Where a chain is given by its changes, count along the chain named. Non-standard residues stand in square brackets, D forms with d. No end group written: not given here. αMePhe(2-F) = C[C@](N)(Cc1ccccc1F)C(=O)O; Aib = CC(C)(N)C(=O)O
T1: human GIP receptor (human) (UniProt P48546)
T1 sequence (looked up): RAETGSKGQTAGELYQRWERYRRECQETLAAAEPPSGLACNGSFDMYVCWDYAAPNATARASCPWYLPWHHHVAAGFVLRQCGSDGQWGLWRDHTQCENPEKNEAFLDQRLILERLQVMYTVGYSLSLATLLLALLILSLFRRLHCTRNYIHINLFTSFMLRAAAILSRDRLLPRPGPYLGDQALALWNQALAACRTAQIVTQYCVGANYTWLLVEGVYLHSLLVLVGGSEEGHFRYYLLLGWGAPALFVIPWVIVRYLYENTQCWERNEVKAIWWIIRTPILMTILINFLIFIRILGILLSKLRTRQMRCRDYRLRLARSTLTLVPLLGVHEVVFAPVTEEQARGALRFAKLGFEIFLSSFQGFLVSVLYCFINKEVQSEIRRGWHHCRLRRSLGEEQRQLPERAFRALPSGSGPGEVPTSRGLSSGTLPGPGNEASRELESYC

B1: Example 375 (peptide)
chain: YXQGTXTSDXXIXLDXKAQXXFIEXLIEGGPSSGEPPPS
modifications: synthetic construct; SITE 2: note = 2-Aminoisobutyric Acid; SITE 6: note = alpha-methyl-2-fluoro-L-phenylalanine; SITE 10: note = 3-(4-Pyridyl)-L-alanine; SITE 11: note = alpha-methyl-L-serine; SITE 13: note = alpha-methyl-leucine; SITE 16: note = L-ornithine; SITE 17: note = Lysine is chemically mo
B2: Example 373 (peptide)
chain: B1 chain with X11S, I27L, G34X, S39E
modifications: synthetic construct; SITE 2: note = 2-Aminoisobutyric Acid; SITE 6: note = alpha-methyl-2-fluoro-L-phenylalanine; SITE 10: note = 3-(4-Pyridyl)-L-alanine; SITE 13: note = alpha-methyl-leucine; SITE 16: note = L-ornithine; SITE 17: note = Lysine is chemically modified through conjugation of the epsil
B3: Example 378 (peptide)
chain: B1 chain with S39E
modifications: synthetic construct; SITE 2: note = 2-Aminoisobutyric Acid; SITE 6: note = alpha-methyl-2-fluoro-L-phenylalanine; SITE 10: note = 3-(4-Pyridyl)-L-alanine; SITE 11: note = alpha-methyl-L-serine; SITE 13: note = alpha-methyl-leucine; SITE 16: note = L-ornithine; SITE 17: note = Lysine is chemically mo
B4: Example 389 (peptide)
chain: B1 chain with X10Y, I12S, I27L, S39E
modifications: synthetic construct; SITE 2: note = 2-Aminoisobutyric Acid; SITE 6: note = alpha-methyl-L-phenylalanine; SITE 11: note = alpha-methyl-L-serine; SITE 13: note = alpha-methyl-leucine; SITE 16: note = L-ornithine; SITE 17: note = Lysine is chemically modified through conjugation of the epsilon-amino gr
B5: Example 384 (peptide)
chain: B1 chain with X10Y, X25Y, I27L, E35A
modifications: synthetic construct; SITE 2: note = 2-Aminoisobutyric Acid; SITE 6: note = alpha-methyl-2-fluoro-L-phenylalanine; SITE 11: note = alpha-methyl-L-serine; SITE 13: note = alpha-methyl-leucine; SITE 16: note = L-ornithine; SITE 17: note = Lysine is chemically modified through conjugation of the epsilon
B6: Example 391 (peptide)
chain: B1 chain with X10Y, X25Y, I27L, S39E
modifications: synthetic construct; SITE 2: note = 2-Aminoisobutyric Acid; SITE 6: note = alpha-methyl-L-phenylalanine; SITE 11: note = alpha-methyl-L-serine; SITE 13: note = alpha-methyl-leucine; SITE 16: note = L-ornithine; SITE 17: note = Lysine is chemically modified through conjugation of the epsilon-amino gr
B7: Example 377 (peptide)
chain: B1 chain with I27L, S39E
modifications: synthetic construct; SITE 2: note = 2-Aminoisobutyric Acid; SITE 6: note = alpha-methyl-2-fluoro-L-phenylalanine; SITE 10: note = 3-(4-Pyridyl)-L-alanine; SITE 11: note = alpha-methyl-L-serine; SITE 13: note = alpha-methyl-leucine; SITE 16: note = L-ornithine; SITE 17: note = Lysine is chemically mo
B8: Example 380 (peptide)
chain: B1 chain with I27L, G34X, S39E
modifications: synthetic construct; SITE 2: note = 2-Aminoisobutyric Acid; SITE 6: note = alpha-methyl-2-fluoro-L-phenylalanine; SITE 10: note = 3-(4-Pyridyl)-L-alanine; SITE 11: note = alpha-methyl-L-serine; SITE 13: note = alpha-methyl-leucine; SITE 16: note = L-ornithine; SITE 17: note = Lysine is chemically mo
B9: Example 383 (peptide)
chain: YXQGTXTSDYSIXLDKKAAXAFIEYLIETGPSSGAPPPSEG
modifications: synthetic construct; SITE 2: note = 2-Aminoisobutyric Acid; SITE 6: note = alpha-methyl-2-fluoro-L-phenylalanine; SITE 13: note = alpha-methyl-leucine; SITE 17: note = Lysine is chemically modified through conjugation of the epsilon-amino group of the Lysine side chain with (2-[2-(2-Amino-ethoxy)-et)
B10: Example 34 (peptide)
chain: YXQGTFTSDFSKXLDKKAQXAFIEYLLEAGPSSGAPPPGEG
modifications: not fully specified; Aib, αMeL; acylated Lys; C-terminal amide; synthetic construct; SITE 2: note = 2-Aminoisobutyric Acid; SITE 13: note = alpha-methyl-leucine; SITE 17: note = Lysine is chemically modified through conjugation of the epsilon-amino group of the Lysine side chain with (2-[2-(2-Amino-ethoxy)-ethoxy]-acetyl)-(gamma-Glu)-CO-(CH2) 18-CO2H; SITE 20: n
B11: Example 35 (peptide)
chain: B10 chain with A29G, A35E, G39E
modifications: not fully specified; Aib, αMeL; acylated Lys; C-terminal amide; synthetic construct; SITE 2: note = 2-Aminoisobutyric Acid; SITE 13: note = alpha-methyl-leucine; SITE 17: note = Lysine is chemically modified through conjugation of the epsilon-amino group of the Lysine side chain with (2-[2-(2-Amino-ethoxy)-ethoxy]-acetyl)-(gamma-Glu)-CO-(CH2) 18-CO2H; SITE 20: n

Target: hGLP-1R (Homo sapiens, UniProt P43220)
Assay: cell-based or functional assay

Sequence of hGLP-1R (P43220 24-463): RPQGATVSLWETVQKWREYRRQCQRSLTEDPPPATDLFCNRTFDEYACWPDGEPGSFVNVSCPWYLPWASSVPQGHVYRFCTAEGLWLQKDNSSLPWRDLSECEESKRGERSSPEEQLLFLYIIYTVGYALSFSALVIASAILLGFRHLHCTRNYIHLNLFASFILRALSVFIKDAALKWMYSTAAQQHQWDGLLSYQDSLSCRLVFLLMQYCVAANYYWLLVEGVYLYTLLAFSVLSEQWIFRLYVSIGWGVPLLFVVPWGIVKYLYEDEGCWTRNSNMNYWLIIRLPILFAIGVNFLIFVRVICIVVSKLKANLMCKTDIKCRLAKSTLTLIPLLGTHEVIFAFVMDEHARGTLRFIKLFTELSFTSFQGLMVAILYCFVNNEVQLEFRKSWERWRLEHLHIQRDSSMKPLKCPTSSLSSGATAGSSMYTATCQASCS

Row | Binder | Relative cAMP EC50 | cAMP Rel EC50, nM (1% HSA) | cAMP Rel EC50 (in the presence of 1% HSA)
1 | B1 | 0.299 nM | 18 nM | –
2 | B2 | 0.392 nM | 54.5 nM | –
3 | B3 | 0.251 nM | 18.8 nM | –
4 | B4 | 0.134 nM | 18.9 nM | –
5 | B5 | 0.133 nM | 19.3 nM | –
6 | B6 | 0.199 nM | 34.4 nM | –
7 | B7 | 0.367 nM | 29.4 nM | –
8 | B8 | 0.354 nM | 30.6 nM | –
9 | Y[Aib]QGT[αMePhe(2-F)]TSDYSKLLDKIAQKAFIEYLIEGGPSSGAPPPSGE-NH2 (not fully specified (residue 20)) [Example 356] | 0.599 nM | 206 nM | –
10 | Y[Aib]QGT[αMePhe(2-F)]TSDYSKILDKIAQKAFIQYLIEGGPSSGEPPPSEG-NH2 (not fully specified (residue 20)) [Example 354] | 1.21 nM | 175 nM | –
11 | B9 | 0.258 nM | 79.1 nM | –
12 | B10 | 1.16 nM | – | 242 nM
13 | B11 | 3.05 nM | – | 1130 nM

Target: T1, human GIP receptor (human)
Assay: cell-based or functional assay

Row | Binder | Relative cAMP EC50 | cAMP Rel EC50, nM (1% HSA) | cAMP Rel EC50 (in the presence of 1% HSA)
14 | B1 | 0.0165 nM | 1.78 nM | –
15 | B2 | 0.0183 nM | 1.97 nM | –
16 | B3 | 0.0213 nM | 2.15 nM | –
17 | B4 | 0.0354 nM | 18.3 nM | –
18 | B5 | 0.0152 nM | 3.63 nM | –
19 | B6 | 0.0298 nM | 11.5 nM | –
20 | B7 | 0.0377 nM | 11.1 nM | –
21 | B8 | 0.0346 nM | 7.77 nM | –
22 | Y[Aib]QGT[αMePhe(2-F)]TSDYSKLLDKIAQKAFIEYLIEGGPSSGAPPPSGE-NH2 (not fully specified (residue 20)) [Example 356] | 0.0613 nM | 19.2 nM | –
23 | Y[Aib]QGT[αMePhe(2-F)]TSDYSKILDKIAQKAFIQYLIEGGPSSGEPPPSEG-NH2 (not fully specified (residue 20)) [Example 354] | 0.134 nM | 23.8 nM | –
24 | B9 | 0.0406 nM | 32.3 nM | –
25 | B10 | 0.122 nM | – | 44.2 nM
26 | B11 | 0.55 nM | – | 194 nM

Target: human glucagon receptor (human) (UniProt P47871)
Assay: cell-based or functional assay

Sequence of human glucagon receptor (human) (P47871 26-477): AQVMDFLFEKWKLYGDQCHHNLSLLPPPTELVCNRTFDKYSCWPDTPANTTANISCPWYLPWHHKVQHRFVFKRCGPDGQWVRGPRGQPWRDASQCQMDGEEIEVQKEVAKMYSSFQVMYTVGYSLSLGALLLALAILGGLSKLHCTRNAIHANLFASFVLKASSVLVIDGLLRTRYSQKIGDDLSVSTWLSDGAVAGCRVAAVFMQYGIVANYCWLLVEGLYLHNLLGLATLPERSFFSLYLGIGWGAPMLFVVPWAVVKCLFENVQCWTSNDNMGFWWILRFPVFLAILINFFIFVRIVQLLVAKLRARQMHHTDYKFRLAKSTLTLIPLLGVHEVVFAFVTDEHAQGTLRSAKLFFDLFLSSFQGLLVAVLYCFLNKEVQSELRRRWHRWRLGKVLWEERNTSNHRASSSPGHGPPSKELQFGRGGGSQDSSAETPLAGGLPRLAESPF

Row | Binder | Relative cAMP EC50 | cAMP Rel EC50, nM (1% HSA) | cAMP Rel EC50 (in the presence of 1% HSA)
27 | B1 | 1.32 nM | 137 nM | –
28 | B2 | 4.48 nM | 666 nM | –
29 | B3 | 1.45 nM | 176 nM | –
30 | B4 | 4.03 nM | 889 nM | –
31 | B5 | 5.77 nM | 1730 nM | –
32 | B6 | 3.04 nM | 808 nM | –
33 | B7 | 1.36 nM | 163 nM | –
34 | B8 | 1.17 nM | 150 nM | –
35 | Y[Aib]QGT[αMePhe(2-F)]TSDYSKLLDKIAQKAFIEYLIEGGPSSGAPPPSGE-NH2 (not fully specified (residue 20)) [Example 356] | 4.76 nM | 2680 nM | –
36 | Y[Aib]QGT[αMePhe(2-F)]TSDYSKILDKIAQKAFIQYLIEGGPSSGEPPPSEG-NH2 (not fully specified (residue 20)) [Example 354] | 7.91 nM | 1440 nM | –
37 | B9 | 1.27 nM | 530 nM | –
38 | B10 | 3.47 nM | – | 855 nM
39 | B11 | 4.32 nM | – | 1390 nM

Reference: patent US20240270821A1, “GIP/GLP1/GCG TRI-RECEPTOR AGONISTS AND USES THEREOF” (priority 2023, published 2024)
